Variants at the floor of the assay were thinned out.
B1: TPR 5TU (parent)
chain: GGAUCUUCUCGAUCUAACAAAAAAGACAAAUCUGCCACAAAGCUUGAGAGCAUCUUCGGAUGCAGAGGCGGCAGCCUUCGGUGGCGCGAUAGCGCCAACGUUCUCAACUAUGACACGCAAAACGCGUGCUCCGUUGAAUGGAGUUUAUCAUG

Variants of: B1
Assay: polymerase ribozyme fitness, log enrichment relative to wild type (log ratio); higher = more active; in vitro selection for triplet polymerase activity
In short: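 Genotype fitness is the logarithm of its enrichment divided by wild-type enrichment, using inverse-variance-weighted averages of replicates. That logarithm is base 2. Enrichment was measured by Illumina sequencing of input and output libraries from one triplicate in vitro selection round, with frozen incubation at −7 °C, on PCR-built, transcribed mutant libraries of each subunit of a heterodimeric triplet polymerase ribozyme, retaining genotypes with ≥10 input reads and ≥1 read per output.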

| Variant | polymerase ribozyme fitness (log ratio) |
| --- | --- |
| C5A C57G C72U A73U G80C C93G A110U | ≤ -4.2 |
| C5A C38U G50A A60G C95A C103U G126U | -3.13 |
| C5G A91U | ≤ -4.2 |
| U4G U6G C85U G141A | -3.39 |
| C5A C27U | -1.46 |
| C5A U7C A22U C103G | -2.38 |
| U4G U7G U13G C43A C54U U78G G94C | ≤ -4.2 |
| C5A G62C G67C G94A A106U | ≤ -4.2 |
| C5G A40C G71A C85A A142C A150C | ≤ -4.2 |
| C5A U9G C93G C103A C108G A113G A137G | ≤ -4.2 |
| U4C C57U A66C C87U | ≤ -4.2 |
| C5G A28C A73G | ≤ -4.2 |
| U4C C76A C93U G141C | ≤ -4.2 |
| C5A A16U U53A C57G U90G C95A | ≤ -4.2 |
| U4G A23U A26U C27G C63U U90G C93A C108U C114U C129G G140C | ≤ -4.2 |
| U4G A21U C32G C38G C93G U146A | ≤ -4.2 |
| C5A A19U G86C | -3.47 |
| U4G A24U G62U C87U A89U | -3.44 |
| U4G A23G C32U G62C G94C G126A G143U | -4.05 |
| C5A A47U C76G G94C U101G | -4.01 |
| U4C A23G C85U A98U G117A A119U G141U | ≤ -4.2 |
| U4G A41C G48C A60U A97G A107U | ≤ -4.2 |
| U4G G58A C85U A115U U144G | -2.13 |
| U4G A19G A23G G59U A66U G141C | ≤ -4.2 |

| Variant | polymerase ribozyme fitness (log ratio) |
| --- | --- |
| U4G G48A G88C C123U U134G A137C | ≤ -4.2 |
| U4C U55A | -0.767 |
| U4C C5U A20C C87A A98C G133U U148G | ≤ -4.2 |
| C5A A16U A24U C35A U56A C85G U109G U144C | ≤ -4.2 |
| U4C C36U A49G A66U G83A C85G G88A C114U U146G | ≤ -4.2 |
| U4G A19C C36A A119C G133A | ≤ -4.2 |
| C5G A12G A21C A26U C38G U77A C118U | ≤ -4.2 |
| C5G A17G C38A A47C A60C U82C C95G C123U G143A A147G | ≤ -4.2 |
| U4C U53A U55A G81C A150U | -1.4 |
| C5A G48C | -0.334 |
| U4G A24G A47C C51A C54A C76G U82G G86U A115G | ≤ -4.2 |
| C5A G92A | -1.42 |
| C5G A12G A22U C38A U44G C75A C79U C93A G133U | ≤ -4.2 |
| U4C A22U A73U C96G A120G | -2.21 |
| U4A G48C C75A C99A U135C A150C | ≤ -4.2 |
| C5A G136A | 0.816 |
| U4G A37C C87U A122G C125A | -3.07 |
| U4C U53A G92C C114A A120G | ≤ -4.2 |
| C5A C85U | -0.371 |
| C5G A29C A47C G50A G86A U90A A91U G143C | ≤ -4.2 |
| C5A A110C | ≤ -4.2 |
| U4C C5G C32A A40C U82C A98G C103U A113C A150C | ≤ -4.2 |
| U4G C5A U55G | -0.269 |
| U4A U6A A28U A30G U44A G59C A60G C87U A89U A97C A107U | ≤ -4.2 |

| Variant | polymerase ribozyme fitness (log ratio) |
| --- | --- |
| U4C C14A C93G | ≤ -4.2 |
| U4C C35G C96U | ≤ -4.2 |
| C5G A29U A64U G86U A150G | ≤ -4.2 |
| C5A A60G | 0.956 |
| C5A C103A | -1.35 |
| C5G A17G A20U C57U A66U G86C A107G C108A | ≤ -4.2 |
| U4C U144G | 0.832 |
| U4G C14U A52U C63U C85U | -4.13 |
| C5G A39C C87A G126A G136C | ≤ -4.2 |
| U4A U9C C27G U55A G70C C85A U127G A142U | ≤ -4.2 |
| U4C G94C C116G | -0.818 |
| U4C A49G C51A C87A C132U A150C | ≤ -4.2 |
| C5G A22U G58U A60U A64U G83C | ≤ -4.2 |
| U4G A47U G58C C93G | -4 |
| U4C U6G U55A C93G C103G A150U | ≤ -4.2 |
| C5A C69A G84A U104G C125U G126A A142C | ≤ -4.2 |
| U4A U6A C36U C57G G68U C79G A91C | ≤ -4.2 |
| C5G A39U G59U G68A A98G A115G A137G G143U | ≤ -4.2 |
| C5A U78C A89U C95U | -1.72 |
| U4C C85G C99U C125G | -3.5 |
| U4G C54G C95G | -3.63 |
| C5A A40C G50U C57U G81C C95A U104G C116G G133A | ≤ -4.2 |
| C5G A41G C85U C95U A122U C132A | -3.5 |
| C5A A47U G84A G124U | -1.14 |

| Variant | polymerase ribozyme fitness (log ratio) |
| --- | --- |
| U4C A22U C32G C38G G65C G81A C118U C149U | ≤ -4.2 |
| U4A G48A C85A C93A A147C | ≤ -4.2 |
| U4G G11U A20U A28U U56A C85U C99U U151A | ≤ -4.2 |
| U4G A49U C57U U82G A91U | ≤ -4.2 |
| U4C A17C G42A G50C U53A G62A U90G A120U | ≤ -4.2 |
| U4G G25A U45G C87A C99A C103U C105G U139G G143A | -4.11 |
| U4G G88U | -3.2 |
| C5A A26G A115G | ≤ -4.2 |
| U4C A49C A52C C99A C132U G136U G140U | ≤ -4.2 |
| U4C C5U A12C G25C A40U G58C G133U | ≤ -4.2 |
| C5G A20G C27A C72U A120U | ≤ -4.2 |
| C5A U13G G81U G92C U145G | -2.12 |
| U4C C38U U55G C87A A106G | ≤ -4.2 |
| U4C U33A A40U U82G C96G C108U C118U U139C U148A | ≤ -4.2 |
| U4G C76U G84A C95U U111G | ≤ -4.2 |
| U4G C10A C35U G83U G88C A120C G143A | -4.17 |
| U4G A49G C87G | ≤ -4.2 |
| U4C A28G C38U C69U C87G G133A | ≤ -4.2 |
| C5A C14G G94C G143A | -4.07 |
| U4C G86U | -1.9 |
| C5A G42C | -4.02 |
| U4G G11U G59A C93U C125U U144C | ≤ -4.2 |
| C5G A37U A40U C95A U139A | ≤ -4.2 |
| U4C A47U C85U C105A C116G G143A A147U | ≤ -4.2 |

| Variant | polymerase ribozyme fitness (log ratio) |
| --- | --- |
| C5G A24G A26G A113G C116G | ≤ -4.2 |
| U4C G74A | -3.29 |
| U4C A12G A73G C93U G152A | -3.07 |
| C5A C76U | -0.144 |
| U4G U56G C85A G141C | -2.61 |
| C5A C76A C85G G133C | -2.61 |
| U4C A26U C69U | -2.9 |
| U4A G65A C85U A97U | -2.2 |
| C5A U9G A73G C87U A120U C123U A147G | -3.95 |
| U4C G48U A49C G68A C79G C105A | ≤ -4.2 |
| U4C C95U A122U | -0.317 |
| C5G A39G G88A C131G | ≤ -4.2 |
| U4G A20U C93G U109A A138G | ≤ -4.2 |
| C5A A41C C54U C85A C103A G117A G133C A137U | ≤ -4.2 |
| C5A U13G C27A G34A G42C C96A | ≤ -4.2 |
| U4G A39U A40U A91U C95G | ≤ -4.2 |
| C5G A16G C35U C63A C85U | -1.82 |
| U4G A24G U44A U56G G94A A138C | ≤ -4.2 |
| U4G C38A A47C C85G | -3.7 |
| U4A G11A A26C A60G G84U G126U C149G | ≤ -4.2 |
| C5A G81U C85G C99U U134A | -4.04 |
| C5A A20G C85U C93U A97U | -3.46 |
| C5A A40G C87U | -2.81 |
| C5A C8G A21U C54G C57U G58A C69A G81A A115U G133C G143U | ≤ -4.2 |

| Variant | polymerase ribozyme fitness (log ratio) |
| --- | --- |
| U4A G11C A41U G50C G58A G59U U82C C87U G92U G140A | ≤ -4.2 |
| C5G A17G A26C A40U U82G C87U C118G C129A C131A G141C | ≤ -4.2 |
| U4A G50A U82G U134C | -2.39 |
| C5G A17G | -0.0409 |
| U4G A29C C75A C96U A115U U148A | -3.99 |
| U4A G83U C95G G124U U148C | ≤ -4.2 |
| U4C G11A C57A C96U G124A A150C | ≤ -4.2 |
| U4G C114U | -2.01 |
| C5A C57U G81C G94C C108A G143C | ≤ -4.2 |
| U4G G94A A115U U151G | ≤ -4.2 |
| U4C C96G | 0.0289 |
| C5A A24G A64C G68A C76U C79U G83C U90A C95G A115U A138G | ≤ -4.2 |
| C5A A37U | -0.964 |
| U4C C27U G62C C85A A138U | ≤ -4.2 |
| U4C A19G C76G G86U A89G A106C U134G | ≤ -4.2 |
| C5G A120C | -0.488 |
| C5A G50A C105U C116A | -1.3 |
| C5G A21G U55A C57U A147C | -0.914 |
| U4G C8U U56A G84A | -1.05 |
| U4C C10U A20C A29U A52C A138C G140U | ≤ -4.2 |
| C5A A12C G42A G68C C79A G83A C108G | ≤ -4.2 |
| U4G G74A G84U U109A | ≤ -4.2 |
| U4G U33C G84U A120U U130C C132U | ≤ -4.2 |
| C5A U45G C85U A115U G141U | -3.86 |

| Variant | polymerase ribozyme fitness (log ratio) |
| --- | --- |
| U4C A16C U55A G74U C85U C87U C103U U146A A147C | ≤ -4.2 |
| C5G A29G G46U A60G | ≤ -4.2 |
| C5A A21G G88C | -4.09 |
| U4G A89C C131A | -3.28 |
| C5A A12U | 0.264 |
| C5G A12U U31A A41U C54U U56A G88A U127C A137C G141A | ≤ -4.2 |
| C5A A20U A21U A107G U145C C149U | ≤ -4.2 |
| C5A A16C G50A C76U G86C U144G | ≤ -4.2 |
| C5G A40C C69A G70U A89C | ≤ -4.2 |
| C5A U45G C85G | -2.33 |
| U4G A20C C43U U55A G59U A60G C87A A121G G141C | ≤ -4.2 |
| U4C A12G C14U A40G G50A G84U U145C | ≤ -4.2 |
| U4A U15G C87U | 0.183 |
| C5A C14G A37U A52C C85G C99U G140U | ≤ -4.2 |
| U4C A22C G48U C93G A122C | -3.98 |
| U4G G11U A40U U55A A98U | -3.1 |
| C5A | 0.273 |
| C5G | -0.157 |
| C5A A17U G42A G83C U102A A119U G126U G141U | ≤ -4.2 |
| U4C C51U C76U G94A | -1.51 |
| C5G A49U C57U C93G C103G U144C | ≤ -4.2 |
| C5A G67C C103A G141U A150C | ≤ -4.2 |
| C5G A19G A24C A40U U55A G83U G86U | ≤ -4.2 |

— the RNAGym collection of RNA variant scans (doi:10.1073/pnas.2313332121)
